The target of assay [1] is T1, human cluster designation 34 (CD34) antigen on the surface of TF-1 cells (human, UniProt P28906 32-385).
T1 construct: whole, on cells; native on TF-1 cells; also called CD34 membrane-protein; CD34-receptor
T1 sequence (looked up): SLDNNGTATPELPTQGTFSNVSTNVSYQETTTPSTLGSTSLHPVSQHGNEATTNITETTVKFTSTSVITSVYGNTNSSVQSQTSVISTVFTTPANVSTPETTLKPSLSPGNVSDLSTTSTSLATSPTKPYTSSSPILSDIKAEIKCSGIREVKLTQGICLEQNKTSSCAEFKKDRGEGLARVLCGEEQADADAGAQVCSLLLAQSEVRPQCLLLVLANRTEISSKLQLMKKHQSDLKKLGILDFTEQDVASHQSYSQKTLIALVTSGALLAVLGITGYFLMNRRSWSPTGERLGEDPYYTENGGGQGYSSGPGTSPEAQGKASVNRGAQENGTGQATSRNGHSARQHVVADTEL
Description: cell capture assay, conditioned medium of HEK293T cells, TF-1 cells, luminescence. Here is the method:
(§1) 96-well microplates (Maxisorp, Nalge Nunc) were coated with polyclonal anti-mouse IgG antibody developed in goats (Jackson Immuno Research, Suffolk, UK) or in sheep (Baxter Oncology, Halle, Germany). After washing with PBS, either conditioned medium containing the anti-CD34 antibody was added and incubated overnight at 4° C. or purified antibody was diluted in DMEM medium (Invitrogen/Gibco, Lofer, Austria) supplemented with 10% FCS (PAA Laboratories, Pasching, Austria) and 1% penicillin/streptomycin (Invitrogen/Gibco) prior to incubation. Subsequently, plates were washed with PBS and TF-1 cells (ATCC CRL-2003) were added at a cell density of 1×10⁵ cells/mL. TF-1 cells were cultivated in RPMI medium (Invitrogen/Gibco). The bound anti-CD34 antibody captures the TF-1 cells by binding to the CD34 present on the surface of the cells. After washing steps to remove the unbound cells, the Cell Titer-Glo reagent from the CellTiter-Glo Luminescent Cell Viability Assay Kit (Promega, Mannheim, Germany) was added. This reagent gives a luminescence signal proportional to the number of viable cells based on an ATP-dependent luciferase reaction (FIG. 3).
The expression of mouse IgG was first verified by the Easy Titer Mouse IgG Assay (Pierce) according to the manufacturer's instructions. To test the functionality of the antibodies the supernatants were tested in the cell capture assay. […]

Assay [2] deals with T1, human cluster designation 34 (CD34) …. Description: cell capture assay, dilution series of purified antibody, TF-1 cells. Here is the method:
as §1
Furthermore, in a large scale expression experiment 23 triple flasks (Nunclon Surface, Nalge Nunc) and one cell factory (Nalge Nunc) were co-transfected and incubated for three weeks. […]

B1: recombinant anti-CD34 antibody transiently expressed in HEK293T cells (co-transfection of pCMV-9C5lc and pCMV-9C5hc) (antibody, V domains shown)
VH: EVQLQQSGPELVKPGASVKISCKASGYSFIGYFMNWVMQSHGRSLEWIGRINPYNGYTFYNQKFKGKATLTVDKSSSTAHMELRSLASEDSAVYYCARHFRYDGVFYYAMDYWGQGTSVTVSS
VL: QLVLTQSSSASFSLGASAKLTCTLSSQHSTFTIEWYQQQPLKPPKYVMDLKKDGSHSTGDGVPDRFSGSSSGADRYLSISNIQPEDEATYICGVGDTIKEQFVYVFGGGTKVTVLG
notes: Tested as conditioned medium and as purified antibody, captured on plates coated with anti-mouse IgG; also called anti-CD34 9C5 antibody; transiently expressed recombinant anti-CD34 antibody
Consider B1, for which the binding result in assay [1] is “binds”.

B2: hybridoma-derived anti-CD34 antibody secreted by the mouse hybridoma cell line 9C5/9069 (antibody, V domains shown)
VH: EVQLQQSGPELVKPGASVKISCKASGYSFIGYFMNWVMQSHGRSLEWIGRINPYNGYTFYNQKFKGKATLTVDKSSSTAHMELRSLASEDSAVYYCARHFRYDGVFYYAMDYWGQGTSVTVSS
VL: QLVLTQSSSASFSLGASAKLTCTLSSQHSTFTIEWYQQQPLKPPKYVMDLKKDGSHSTGDGVPDRFSGSSSGADRYLSISNIQPEDEATYICGVGDTIKEQFVYVFGGGTKVTVLG
notes: also called hybridoma supernatant
In the case of B2, in assay [2], the binding result is listed as “binds”.

The values are drawn from patent US20130143238A1 (BAXTER HEALTHCARE S A, published 2013).
